Assay [1] addresses T1, rHuman P-Cadherin/Fc Chimera, CF (R&D Systems Cat#861-PC) (human, UniProt P22223 108-654). Description: ECL Multispot (MSD), antigen spotted on plate, Fab in solution; blank spot 292.
For assay [2], the target named is T2, rHuman CD44/Fc Chimera, CF (R&D Systems Cat#3660-CD) (human, UniProt P16070 21-220). The description is as above.
Assay [3] has as its target T3, rHuman Erythropoietin R/Fc Chimera, CF (R&D Systems Cat#963-ER) (human, UniProt P19235 25-250). The assay is described as above.
Assay [4] addresses T4, rHuman HGF R/c-MET/Fc Chimera, CF (R&D Systems Cat#358-MT/CF) (human, UniProt P08581 25-932). The description is as above.
The target in assay [5] is T5, rHuman Notch-1/Fc Chimera, CF (R&D Systems Cat#3647-TK) (human).
T5 chain: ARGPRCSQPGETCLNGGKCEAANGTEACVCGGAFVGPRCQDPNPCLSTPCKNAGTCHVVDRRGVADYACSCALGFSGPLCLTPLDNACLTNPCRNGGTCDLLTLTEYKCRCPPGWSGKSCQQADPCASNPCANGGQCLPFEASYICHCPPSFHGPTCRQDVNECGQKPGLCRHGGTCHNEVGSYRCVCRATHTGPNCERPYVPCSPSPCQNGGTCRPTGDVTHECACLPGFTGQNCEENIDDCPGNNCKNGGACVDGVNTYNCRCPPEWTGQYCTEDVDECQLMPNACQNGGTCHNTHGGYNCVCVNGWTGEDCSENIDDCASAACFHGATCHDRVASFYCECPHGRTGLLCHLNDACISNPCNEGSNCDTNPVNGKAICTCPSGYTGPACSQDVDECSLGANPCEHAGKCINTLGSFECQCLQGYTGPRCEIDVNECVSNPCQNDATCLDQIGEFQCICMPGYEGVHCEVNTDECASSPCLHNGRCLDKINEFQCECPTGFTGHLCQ
The description is as above.

Assay [6] has as its target T6, rHuman IGF-1 sR (insulin-like growth factor-1 soluble receptor), CF (R&D Systems Cat#391-GR) (human, UniProt P08069 31-932).
T6 construct: Bought recombinant soluble receptor
Put plainly: MSD ECL multispot assay, antigen spotted on plate, Fab in solution; blank spot of this row 166.

Assay [7] concerns the target T7, rHuman CD44/Fc Chimera, CF (R&D Systems Cat#3660-CD) (human, UniProt P16070 21-220).
T7 construct: Bought recombinant protein; not shown: Fc of the bought chimera
The description is as above.

In assay [8] the target is T8, Recombinant Human DLL4 (R&D Systems Cat#1506-D4/CF) (human, UniProt Q9NR61 27-524).
T8 construct: Bought recombinant protein; also called delta-like protein 4; rHuman DLL4
The description is as above.

In assay [9] the target is T9, rHuman Erythropoietin R/Fc Chimera, CF (R&D Systems Cat#963-ER) (human, UniProt P19235 25-250).
T9 construct: Bought recombinant protein; also called EPO R; EPO R/Fc; not shown: Fc of the bought chimera
T9 sequence (looked up): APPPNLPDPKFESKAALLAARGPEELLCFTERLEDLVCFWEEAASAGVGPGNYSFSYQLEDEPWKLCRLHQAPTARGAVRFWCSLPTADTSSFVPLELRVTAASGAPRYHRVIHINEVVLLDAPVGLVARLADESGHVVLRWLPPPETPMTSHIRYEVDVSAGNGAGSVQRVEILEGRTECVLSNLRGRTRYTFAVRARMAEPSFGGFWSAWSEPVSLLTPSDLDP
The assay is described as above.

Assay [10] concerns the target T10, rHuman HGF R/c-MET/Fc Chimera, CF (R&D Systems Cat#358-MT/CF) (human, UniProt P08581 25-932).
T10 construct: Bought recombinant protein; also called HGF R/Fc; not shown: Fc of the bought chimera
The assay is described as above.

Assay [11] has as its target T11, rHuman Notch-1/Fc Chimera, CF (R&D Systems Cat#3647-TK) (human, UniProt P46531 19-526).
T11 construct: Bought recombinant protein; not shown: Fc of the bought chimera
The description is as above.

The target in assay [12] is T12, rHuman P-Cadherin/Fc Chimera, CF (R&D Systems Cat#861-PC) (human, UniProt P22223 108-654).
T12 construct: Bought recombinant protein; not shown: Fc of the bought chimera
Described as above.

For assay [13], the target named is T1, rHuman P-Cadherin/Fc Chimera, CF (R&D …). Description: ECL Multispot (MSD), antigen spotted on plate, Fab in solution; blank spot 241.
Assay [14] addresses T2, rHuman CD44/Fc Chimera, CF (R&D Systems …). The description is as above.
For assay [15], the target named is T3, rHuman Erythropoietin R/Fc Chimera, CF …. The description is as above.
For assay [16], the target named is T5, rHuman Notch-1/Fc Chimera, CF (R&D …). The assay is described as above.
For assay [17], the target named is T1, rHuman P-Cadherin/Fc Chimera, CF (R&D …). Description: ECL Multispot (MSD), antigen spotted on plate, Fab in solution; blank spot 169.
The target of assay [18] is T2, rHuman CD44/Fc Chimera, CF (R&D Systems …). Described as above.
For assay [19], the target named is T3, rHuman Erythropoietin R/Fc Chimera, CF …. Described as above.
For assay [20], the target named is T4, rHuman HGF R/c-MET/Fc Chimera, CF (R&D …). Described as above.
The target of assay [21] is T5, rHuman Notch-1/Fc Chimera, CF (R&D …). Described as above.
For assay [22], the target named is T1, rHuman P-Cadherin/Fc Chimera, CF (R&D …). Description: ECL Multispot (MSD), antigen spotted on plate, Fab in solution; blank spot 200.
The target of assay [23] is T2, rHuman CD44/Fc Chimera, CF (R&D Systems …). The assay is described as above.
Assay [24] deals with T3, rHuman Erythropoietin R/Fc Chimera, CF …. The assay is described as above.
The target in assay [25] is T4, rHuman HGF R/c-MET/Fc Chimera, CF (R&D …). The description is as above.
For assay [26], the target named is T5, rHuman Notch-1/Fc Chimera, CF (R&D …). The assay is described as above.

Residue numbers refer to the chain shown, from its start. Names may count otherwise.

B1: Fab VH1-46_IGHD6-6*01_IGHJ1*01 S102A/S103P/S104F/H111F (APFF) & L6_IGKJ1*01 S92P (Fab, V domains shown)
VH: QVQLVQSGAEVKKPGASVKVSCKASGYTFTSYYMHWVRQAPGQGLEWMGIINPSGGSTSYAQKFQGRVTMTRDTSTSTVYMELSSLRSEDTAVYYCAREEYAPFSAEYFQFWGQGTLVTVSS
VL: EIVLTQSPATLSLSPGERATLSCRASQSVSSYLAWYQQKPGQAPRLLIYDASNRATGIPARFSGSGSGTDFTLTISSLEPEDFAVYYCQQRPNWPPWTFGQGTKVEIKR
notes: also called APFF / S92P
Take B1: the ECL signal was 354 in assay [1]; 282 in assay [2]; 391 in assay [3]; 242 in assay [4]; 346 in assay [5].

B2: Fab VH1-46_IGHD6-6*01_IGHJ1*01 S102A/S103P/S104F/H111F (APFF) & L6_IGKJ1*01 S92P (Fab, V domains shown)
VH: B1 VH
VL: B1 VL
notes: Fab; also called APFF / S92P
B2: the ECL signal in assay [6] came out at 280; in assay [7], 292; in [8] it was 446; in assay [9] it was 385; in assay [10] it was 256; in [11] it was 328. Moreover, in assay [12], the ECL signal was 307.

B3: Fab VH1-46_IGHD6-6*01_IGHJ1*01 S102A/S103P/S104F/H111F (APFF) & L6_IGKJ1*01 W94M (Fab, V domains shown)
VH: B1 VH
VL: B1 VL with P92S, W94M
notes: also called APFF / W94M
On to B3, for which the ECL signal came to 346 in [13], 327 in assay [14], 435 in assay [15] and 321 in assay [16].

B4: Fab VH1-46_IGHD6-6*01_IGHJ1*01 S102A/S103P/S104F/H111F (APFF) & L6_IGKJ1*01 W94P (Fab, V domains shown)
VH: B1 VH
VL: B1 VL with P92S, W94P
notes: also called APFF / W94P
In the case of B4, the ECL signal is 268 in [17]; 241 in assay [18]; 292 in assay [19]; 275 in [20]; 228 in [21].

B5: Fab VH1-46_IGHD6-6*01_IGHJ1*01 S102A/S103P/S104F/H111F (APFF) & L6_IGKJ1*01 W94L (Fab, V domains shown)
VH: B1 VH
VL: B1 VL with P92S, W94L
notes: also called APFF / W94L
In the case of B5, the ECL signal in assay [22] stood at 296; in assay [23], 309; in [24], 333; in assay [25] it was 187; in [26], 369.

Values taken from patent US20120316071A1 (published 2012).
